In experiment [1] the target is T1, recombinant His-tagged human FRα (ACROBiosystems) (human, UniProt P15328 25-233).
T1 construct: also called hFRα; hFRα antigen; not shown: His tag
Put plainly: BLI (Octet RED96): antibody loaded on anti-human IgG Fc capture biosensors, His-tagged hFRα in solution. Six traces with fit lines plateau between about 0.17 and 0.5 nm during 0-400 s association and decay almost to baseline by 900 s. The legend prints the same globally fitted KD for all six traces (single run; the text prints only the mean of n=2). The procedure:
(§1) The assay buffer used was KB buffer (kinetics buffer, composed of PBS pH 7.4, 0.1% BSA, 0.02% Tween 20, 0.05% sodium azide) supplemented with 0.06% Tween 20 and in some instances also with 1% BSA. The experiment was conducted at 30° C. with a shake speed of 1000 rpm.
(§2) Data analysis was performed using Data Analysis Software 9.0 (ForteBio, Fremont CA). The reference-subtracted binding curves were globally fitted to the 1:1 interaction model to generate the binding kinetic parameters kₒₙ, koff, and the dissociation constant KD.
Background: In BLI a coated tip is dipped into the sample, and binding shifts an interference pattern.

Experiment [2] deals with T1, recombinant His-tagged human FRα …. The experiment in a line: SPR (Biacore T200): hFRα amine-coupled to CM5 chip at medium-low antigen density, bivalent FSA injected, 1:1 Langmuir fit, mean of n=2. Here is the method: (§3) CM5 Series S sensor chip, Biacore™ amine coupling kit (NHS, EDC and 1 M ethanolamine), and 10 mM sodium acetate buffers were purchased from GE Healthcare Life Science (Mississauga, ON, Canada). PBS running buffer with 0.05% Tween20 (PBST) was purchased from Teknova Inc. (Hollister, CA). Recombinant human FRα was purchased from ACRObiosystems (Newark, DE).
(§4) Screening of the variants for binding to hFRα antigen was conducted in two steps: capture of hFRα onto surface, followed by injection of three to five concentrations of variant. The hFRα surface was prepared on a CM5 Series S sensor chip by standard amine coupling methods as described by the manufacturer (GE Healthcare Life Science, Mississauga, ON, Canada). The immobilization of the hFRα was performed using Biacore™ T200 immobilization wizard with an amine coupling method aiming for resonance units (RUs) ranging from 5 to 200 RUs. Using multi-cycle kinetics, three to five concentrations of a two-fold dilution series of samples starting at 300 nM with a blank buffer control were injected at 50 uL/min for 180s with a 600s dissociation phase, resulting in a set of sensorgrams with a buffer blank reference. The hFRα surface was regenerated to prepare for the next injection cycle by one pulse of 10 mM glycine/HCl pH 1.5 for 30s at 30 uL/min. Blank-subtracted sensorgrams were analyzed using Biacore™ T200 Evaluation Software v3.0. The blank-subtracted sensorgrams were then fit to the 1:1 Langmuir binding model.

For experiment [3] the target is unchanged. Put plainly: SPR (Biacore T200): hFRα amine-coupled to CM5 chip at high antigen density, bivalent FSA injected, 1:1 Langmuir fit, mean of n=2. The procedure: as §3, §4
Background: SPR reads the build-up and loss of mass on a sensor chip optically.

Experiment [4] has the same target. The experiment in a line: BLI (Octet RED96): antibody on anti-human IgG Fc capture biosensor, His-tagged hFRα as analyte, 1:1 global fit, mean of n=2. The procedure:
as §1, §2

Experiment [5] shares this target. Put plainly: SPR (Biacore T200): hFRα amine-coupled to CM5 chip at medium antigen density, bivalent FSA injected, 1:1 Langmuir fit, mean of n=2. Here is the method:
as §3, §4

We go through 1 molecule from patent publication US20240424125A1 (Zymeworks, published 2024).

T1 sequence (P15328 25-233 limits assumed): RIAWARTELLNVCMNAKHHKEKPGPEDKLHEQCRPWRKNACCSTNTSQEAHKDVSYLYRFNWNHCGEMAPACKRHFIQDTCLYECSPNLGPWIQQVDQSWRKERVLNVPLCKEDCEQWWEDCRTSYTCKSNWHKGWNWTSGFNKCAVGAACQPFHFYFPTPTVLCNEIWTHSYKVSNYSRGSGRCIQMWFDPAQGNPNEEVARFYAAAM

B1: v23924 (antibody, human IgG1, kappa, V domains shown)
VH: QSVKESEGGLFKPTDTLTLTCTVSGFSLSSYGVSWVRQAPGNGLEWIGAVNSGGSAYYANWAKSRSTITRNTNLFTVTLKMTSLAVADTATYFCARSGSGYPMDYLAIWGPGTLVTVSS
VL: AYDMTQTPASVEVAVGGTVTIKCQASQSIGDWLAWYQQKPGQPPRLLIYEASTLASGVPSRFSGSGSGTQFTLTISGVECADAATYYCQQGYGRSNVDNIFGGGTEVVVKR
notes: Rabbit-human chimeric full-size antibody, human IgG1/kappa, HomoFc; also called variant v23924; parental chimeric anti-FRα antibody
Consider B1, for which the Kd was 20.6 nM in experiment [1]; 2.29 nM in experiment [2]; 0.278 nM in experiment [3]; 27 nM in experiment [4]; 1.37 nM in experiment [5].
